In publication PMC7367873, “Dissecting the sequence determinants for dephosphorylation by the catalytic subunits of phosphatases PP1 and PP2A” (Nature Communications, 2020):

B1: DDX20 (protein, UniProt Q9UHI6 1-824, looked up)
Probable ATP-dependent RNA …: MAAAFEASGALAAVATAMPAEHVAVQVPAPEPTPGPVRILRTAQDLSSPRTRTGDVLLAEPADFESLLLSRPVLEGLRAAGFERPSPVQLKAIPLGRCGLDLIVQAKSGTGKTCVFSTIALDSLVLENLSTQILILAPTREIAVQIHSVITAIGIKMEGLECHVFIGGTPLSQDKTRLKKCHIAVGSPGRIKQLIELDYLNPGSIRLFILDEADKLLEEGSFQEQINWIYSSLPASKQMLAVSATYPEFLANALTKYMRDPTFVRLNSSDPSLIGLKQYYKVVNSYPLAHKVFEEKTQHLQELFSRIPFNQALVFSNLHSRAQHLADILSSKGFPAECISGNMNQNQRLDAMAKLKHFHCRVLISTDLTSRGIDAEKVNLVVNLDVPLDWETYMHRIGRAGRFGTLGLTVTYCCRGEEENMMMRIAQKCNINLLPLPDPIPSGLMEECVDWDVEVKAAVHTYGIASVPNQPLKKQIQKIERTLQIQKAHGDHMASSRNNSVSGLSVKSKNNTKQKLPVKSHSECGIIEKATSPKELGCDRQSEEQMKNSVQTPVENSTNSQHQVKEALPVSLPQIPCLSSFKIHQPYTLTFAELVEDYEHYIKEGLEKPVEIIRHYTGPGDQTVNPQNGFVRNKVIEQRVPVLASSSQSGDSESDSDSYSSRTSSQSKGNKSYLEGSSDNQLKDSESTPVDDRISLEQPPNGSDTPNPEKYQESPGIQMKTRLKEGASQRAKQSRRNLPRRSSFRLQTEAQEDDWYDCHREIRLSFSDTYQDYEEYWRAYYRAWQEYYAAASHSYYWNAQRHPSWMAAYHMNTIYLQEMMHSNQ
B2: NOP58 (protein, UniProt Q9Y2X3 1-529, looked up)
Nucleolar protein 58: MLVLFETSVGYAIFKVLNEKKLQEVDSLWKEFETPEKANKIVKLKHFEKFQDTAEALAAFTALMEGKINKQLKKVLKKIVKEAHEPLAVADAKLGGVIKEKLNLSCIHSPVVNELMRGIRSQMDGLIPGVEPREMAAMCLGLAHSLSRYRLKFSADKVDTMIVQAISLLDDLDKELNNYIMRCREWYGWHFPELGKIISDNLTYCKCLQKVGDRKNYASAKLSELLPEEVEAEVKAAAEISMGTEVSEEDICNILHLCTQVIEISEYRTQLYEYLQNRMMAIAPNVTVMVGELVGARLIAHAGSLLNLAKHAASTVQILGAEKALFRALKSRRDTPKYGLIYHASLVGQTSPKHKGKISRMLAAKTVLAIRYDAFGEDSSSAMGVENRAKLEARLRTLEDRGIRKISGTGKALAKTEKYEHKSEVKTYDPSGDSTLPTCSKKRKIEQVDKEDEITEKKAKKAKIKVKVEEEEEEKVAEEEETSVKKKKKRGKKKHIKEEPLSEEEPCTSTAIASPEKKKKKKKKRENED
B3: MMS19 (protein, UniProt Q96T76 2-1030, looked up)
MMS19 nucleotide excision …: AAAAAVEAAAPMGALWGLVHDFVVGQQEGPADQVAADVKSGNYTVLQVVEALGSSLENPEPRTRARAIQLLSQVLLHCHTLLLEKEVVHLILFYENRLKDHHLVIPSVLQGLKALSLCVALPPGLAVSVLKAIFQEVHVQSLPQVDRHTVYNIITNFMRTREEELKSLGADFTFGFIQVMDGEKDPRNLLVAFRIVHDLISRDYSLGPFVEELFEVTSCYFPIDFTPPPNDPHGIQREDLILSLRAVLASTPRFAEFLLPLLIEKVDSEVLSAKLDSLQTLNACCAVYGQKELKDFLPSLWASIRREVFQTASERVEAEGLAALHSLTACLSRSVLRADAEDLLDSFLSNILQDCRHHLCEPDMKLVWPSAKLLQAAAGASARACDSVTSNVLPLLLEQFHKHSQSSQRRTILEMLLGFLKLQQKWSYEDKDQRPLNGFKDQLCSLVFMALTDPSTQLQLVGIRTLTVLGAQPDLLSYEDLELAVGHLYRLSFLKEDSQSCRVAALEASGTLAALYPVAFSSHLVPKLAEELRVGESNLTNGDEPTQCSRHLCCLQALSAVSTHPSIVKETLPLLLQHLWQVNRGNMVAQSSDVIAVCQSLRQMAEKCQQDPESCWYFHQTAIPCLLALAVQASMPEKEPSVLRKVLLEDEVLAAMVSVIGTATTHLSPELAAQSVTHIVPLFLDGNVSFLPENSFPSRFQPFQDGSSGQRRLIALLMAFVCSLPRNVEIPQLNQLMRELLELSCCHSCPFSSTAAAKCFAGLLNKHPAGQQLDEFLQLAVDKVEAGLGSGPCRSQAFTLLLWVTKALVLRYHPLSSCLTARLMGLLSDPELGPAAADGFSLLMSDCTDVLTRAGHAEVRIMFRQRFFTDNVPALVQGFHAAPQDVKPNYLKGLSHVLNRLPKPVLLPELPTLLSLLLEALSCPDCVVQLSTLSCLQPLLLEAPQVMSLHVDTLVTKFLNLSSSPSMAVRIAALQCMHALTRLPTPVLLPYKPQVIRALAKPLDDKKRLVRKEAVSARGEWFLLGSPGS
B4: CPT1A (protein, UniProt P50416 2-773, looked up)
Carnitine …: AEAHQAVAFQFTVTPDGIDLRLSHEALRQIYLSGLHSWKKKFIRFKNGIITGVYPASPSSWLIVVVGVMTTMYAKIDPSLGIIAKINRTLETANCMSSQTKNVVSGVLFGTGLWVALIVTMRYSLKVLLSYHGWMFTEHGKMSRATKIWMGMVKIFSGRKPMLYSFQTSLPRLPVPAVKDTVNRYLQSVRPLMKEEDFKRMTALAQDFAVGLGPRLQWYLKLKSWWATNYVSDWWEEYIYLRGRGPLMVNSNYYAMDLLYILPTHIQAARAGNAIHAILLYRRKLDREEIKPIRLLGSTIPLCSAQWERMFNTSRIPGEETDTIQHMRDSKHIVVYHRGRYFKVWLYHDGRLLKPREMEQQMQRILDNTSEPQPGEARLAALTAGDRVPWARCRQAYFGRGKNKQSLDAVEKAAFFVTLDETEEGYRSEDPDTSMDSYAKSLLHGRCYDRWFDKSFTFVVFKNGKMGLNAEHSWADAPIVAHLWEYVMSIDSLQLGYAEDGHCKGDINPNIPYPTRLQWDIPGECQEVIETSLNTANLLANDVDFHSFPFVAFGKGIIKKCRTSPDAFVQLALQLAHYKDMGKFCLTYEASMTRLFREGRTETVRSCTTESCDFVRAMVDPAQTVEQRLKLFKLASEKHQHMYRLAMTGSGIDRHLFCLYVVSKYLAVESPFLKEVLSEPWRLSTSQTPQQQVELFDLENNPEYVSSGGGFGPVADDGYGVSYILVGENLINFHISSKFSCPETDSHRFGRHLKEAMTDIITLFGLSSNSKK
B5: BBX (protein, UniProt Q8WY36 1-941, looked up)
HMG box transcription factor …: MKGSNRNKDHSAEGEGVGKRPKRKCLQWHPLLAKKLLDFSEEEEEEDEEEDIDKVQLLGADGLEQDVGETEDDESPEQRARRPMNAFLLFCKRHRSLVRQEHPRLDNRGATKILADWWAVLDPKEKQKYTDMAKEYKDAFMKANPGYKWCPTTNKPVKSPTPTVNPRKKLWAFPSDSSRDLPSPKKAKTEEMPQLNFGMADPTQMGGLSMLLLAGEHALGTPEVSSGTCRPDVSESPELRQKSPLFQFAEISSSTSHSDASTKQCQTSALFQFAEISSNTSQLGGAEPVKRCGKSALFQLAEMCLASEGMKMEESKLIKAKESDGGRIKELEKGKEEKEIKMEKTDETRLQKEAEFEKSAKENLRDSKELRNFEALQIDDIMAIKMEDPKEIRKEELEEDHKCSHFPDFSYSASSKIIISDVPSRKDHMCHPHGIMIIEDPAALNKPEKLKKKKKKSKMDRHGNDKSTPKKTCKKRQSSESDIESVIYTIEAVAKGDWGIEKLGDTPRKKVRTSSSGKGSILDAKPPKKKVKSREKKMSKEKSSDTTKESRPPDFISISASKNISGETPEGIKAEPLTPMEDALPPSLSGQAKPEDSDCHRKIETCGSRKSERSCKGALYKTLVSEGMLTSLRANVDRGKRSSGKGNSSDHEGCWNEESWTFSQSGTSGSKKFKKTKPKEDCLLGSAKLDEEFEKKFNSLPQYSPVTFDRKCVPVPRKKKKTGNVSSEPTKTSKGPFQSQKKNLFHKIVSKYKHKKEKPNVPEKGSGDKWSNKQLFLDAIHPTEAIFSEDRNTMEPVHKVKNIPSIFNTPEPTTTQEPLVGSQKRKARKTKITHLVRTADGRVSPAGGTLDDKPKEQLQRSLPKATETDCNDKCSHNTEVGETRSSTPEMPAVSAFFSLAALAEVAAMENVHRGQRSTPLTHDGQPKEMPQAPVLISCADQ
B6: RASAL2 (protein, UniProt Q9UJF2 1-1139, looked up)
Ras GTPase-activating protein …: MQTPEVPAERSPRRRSISGTSTSEKPNSMDTANTSPFKVPGFFSKRLKGSIKRTKSQSKLDRNTSFRLPSLRSTDDRSRGLPKLKESRSHESLLSPCSTVECLDLGRGEPVSVKPLHSSILGQDFCFEVTYLSGSKCFSCNSASERDKWMENLRRTVQPNKDNCRRAENVLRLWIIEAKDLAPKKKYFCELCLDDTLFARTTSKTKADNIFWGEHFEFFSLPPLHSITVHIYKDVEKKKKKDKNNYVGLVNIPTASVTGRQFVEKWYPVSTPTPNKGKTGGPSIRIKSRFQTITILPMEQYKEFAEFVTSNYTMLCSVLEPVISVRNKEELACALVHILQSTGRAKDFLTDLVMSEVDRCGEHDVLIFRENTIATKSIEEYLKLVGQQYLHDALGEFIKALYESDENCEVDPSKCSSSELIDHQSNLKMCCELAFCKIINSYCVFPRELKEVFASWKQQCLNRGKQDISERLISASLFLRFLCPAIMSPSLFNLMQEYPDDRTSRTLTLIAKVIQNLANFAKFGNKEEYMAFMNDFLEHEWGGMKRFLLEISNPDTISNTPGFDGYIDLGRELSVLHSLLWEVVSQLDKGENSFLQATVAKLGPLPRVLADITKSLTNPTPIQQQLRRFTEHNSSPNVSGSLSSGLQKIFEDPTDSDLHKLKSPSQDNTDSYFRGKTLLLVQQASSQSMTYSEKDERESSLPNGRSVSLMDLQDTHAAQVEHASVMLDVPIRLTGSQLSITQVASIKQLRETQSTPQSAPQVRRPLHPALNQPGGLQPLSFQNPVYHLNNPIPAMPKASIDSSLENLSTASSRSQSNSEDFKLSGPSNSSMEDFTKRSTQSEDFSRRHTVPDRHIPLALPRQNSTGQAQIRKVDQGGLGARAKAPPSLPHSASLRSTGSMSVVSAALVAEPVQNGSRSRQQSSSSRESPVPKVRAIQRQQTQQVQSPVDSATMSPVERTAAWVLNNGQYEEDVEETEQNLDEAKHAEKYEQEITKLKERLRVSSRRLEEYERRLLVQEQQMQKLLLEYKARLEDSEERLRRQQEEKDSQMKSIISRLMAVEEELKKDHAEMQAVIDAKQKIIDAQEKRIVSLDSANTRLMSALTQVKERYSMQVRNGISPTNPTKLSITENGEFKNSSC

tested on: GFP-14-3-3β; assay: GFP-14-3-3β co-IP with LC-MS/MS, untreated GFP-14-3-3β versus GFP control (14-3-3 interactome); type: binding, human; details: log2 difference; pairwise comparison untreated vs GFP, label-free quantification, 3 replicates each

Molecule	Difference (log2), untreated vs GFP
B1	-0.1781

same assay, conditions: untreated vs GFP; LFQ intensities; 3 replicates each

Molecule	Difference (log2), untreated vs GFP [log2]
B2	1.325
B3	1.425
B4	1.035
B5	0.1239
B6	1.812

tested on: GFP-14-3-3β and its binding proteins; assay: GFP-14-3-3β co-IP with LC-MS/MS label-free quantification, untreated versus PP1c-treated; set-up: species or system human; details: PP1 vs untreated; LFQ intensities; 3 replicates each

Difference (log2), PP1 vs untreated [log2]	Molecule
0.6296	B2
0.6094	B3
0.596	B4
0.6283	B5
0.5963	B6

same assay, conditions: log2 difference; pairwise comparison PP1 vs untreated, label-free quantification, 3 replicates each

Difference (log2), PP1 vs untreated	Molecule
2.218	B1
